Patent US20220056104A1 (Janssen / Centocor, published 2022)
Changes are numbered by the printed parent chain. Names and notes keep the numbering of the source.

T1: Recombinant DR3-Fc (R&D Systems, cat. #943-D3) (UniProt Q93038 25-199, limits assumed)
T1 construct: dimeric MW~92 kDa; also called DR3 receptor; Fc-DR3; not shown: Fc part of the bought fusion
T1 sequence (looked up): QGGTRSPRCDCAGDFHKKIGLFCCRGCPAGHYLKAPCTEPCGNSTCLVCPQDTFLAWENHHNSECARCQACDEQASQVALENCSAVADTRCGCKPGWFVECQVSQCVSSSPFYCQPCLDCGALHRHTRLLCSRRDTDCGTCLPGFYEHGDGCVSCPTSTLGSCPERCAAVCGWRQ

T2: DcR3 (UniProt O95407 30-300, limits assumed)
T2 construct: the construct is not described; also called decoy receptor DcR3; TNFRSF6B
T2 sequence (looked up): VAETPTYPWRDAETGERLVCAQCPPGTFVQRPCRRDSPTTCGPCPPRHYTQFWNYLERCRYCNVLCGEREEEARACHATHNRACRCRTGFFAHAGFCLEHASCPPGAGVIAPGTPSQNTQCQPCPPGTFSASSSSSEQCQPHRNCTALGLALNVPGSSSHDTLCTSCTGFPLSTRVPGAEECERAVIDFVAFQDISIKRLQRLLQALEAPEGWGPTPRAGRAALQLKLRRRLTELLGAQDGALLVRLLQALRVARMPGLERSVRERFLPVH

B1: TL1W19 (His-TEV-TL1A-TL1A-TL1A) (ligand)
chain: HHHHHHENLYFQGAPLRADGDKPRAHLTVVRQTPTQHFKNQFPALHWEHELGLAFTKNRMNYTNKFLLIPESGDYFIYSQVTFRGMTSECSEIRQAGRPNKPDSITVVITKVTDSYPEPTQLLMGTKSVCEVGSNWFQPIYLGAMFSLQEGDKLMVNVSDISLVDYTKEDKTFFGAFLLAPLRADGDKPRAHLTVVRQTPTQHFKNQFPALHWEHELGLAFTKNRMNYTNKFLLIPESGDYFIYSQVTFRGMTSECSEIRQAGRPNKPDSITVVITKVTDSYPEPTQLLMGTKSVCEVGSNWFQPIYLGAMFSLQEGDKLMVNVSDISLVDYTKEDKTFFGAFLLAPLRADGDKPRAHLTVVRQTPTQHFKNQFPALHWEHELGLAFTKNRMNYTNKFLLIPESGDYFIYSQVTFRGMTSECSEIRQAGRPNKPDSITVVITKVTDSYPEPTQLLMGTKSVCEVGSNWFQPIYLGAMFSLQEGDKLMVNVSDISLVDYTKEDKTFFGAFLL
notes: Single-chain trimer, three TL1A copies in one chain; also called His-scTL1A; His-scTL1A (TL1W19)
B2: TL1W35 (C202S) (ligand)
chain: HHHHHHENLYFQGLKGQEFAPSHQQVYAPLRADGDKPRAHLTVVRQTPTQHFKNQFPALHWEHELGLAFTKNRMNYTNKFLLIPESGDYFIYSQVTFRGMTSECSEIRQAGRPNKPDSITVVITKVTDSYPEPTQLLMGTKSVSEVGSNWFQPIYLGAMFSLQEGDKLMVNVSDISLVDYTKEDKTFFGAFLL
B3: TL1W34 (C162S, C202S) (ligand)
chain: B2 chain with C104S
notes: also called TL1A-C162S, C202S; C162S, C202S TL1A variant
B4: TL1W2 (His-TEV-hTL1A 72-251) (ligand)
chain: B2 chain with S144C
notes: Non-covalent trimer; entry holds the His-TEV tag; also called His-TL1A; His-TL1A (TL1W2)
B5: TL1W122 (His-TEV-TL1A N207F) (ligand)
chain: B2 chain with S144C, N149F
notes: also called TL1W122 (N207F)
B6: TL1W129 (His-TEV-TL1A Y238K) (ligand)
chain: B2 chain with S144C, Y180K
notes: also called TL1W129 (Y238K)
B7: TL1W92 (His-TEV-TL1A M158Y) (ligand)
chain: B2 chain with M100Y, S144C
notes: also called TL1W92 (M158Y)
B8: TL1W137 (His-TEV-TL1A K240S) (ligand)
chain: B2 chain with S144C, K182S
notes: also called TL1W137 (K240S)
B9: TL1W38 (His-TEV-TL1A L123K) (ligand)
chain: B2 chain with L65K, S144C
notes: also called TL1W38 (L123K)
B10: TL1W95 (His-TEV-TL1A Q167A) (ligand)
chain: B2 chain with Q109A, S144C
notes: also called TL1W95 (Q167A)
B11: TL1W131 (His-TEV-TL1A Y238E) (ligand)
chain: B2 chain with S144C, Y180E
notes: also called TL1W131 (Y238E)
B12: TL1W136 (His-TEV-TL1A K240F) (ligand)
chain: B2 chain with S144C, K182F
notes: also called TL1W136 (K240F)
B13: TL1W80 (His-TEV-TL1A K111A) (ligand)
chain: B2 chain with K53A, S144C
notes: also called TL1W80 (K111A)
B14: TL1W132 (His-TEV-TL1A T239A) (ligand)
chain: B2 chain with S144C, T181A
notes: also called TL1W132 (T239A)
B15: TL1W109 (His-TEV-TL1A S187L) (ligand)
chain: B2 chain with S129L, S144C
notes: also called TL1W109 (S187L)
B16: TL1W45 (His-TEV-TL1A E190F) (ligand)
chain: B2 chain with E132F, S144C
notes: also called TL1W45 (E190F)

What follows are binders tested against T1, Recombinant DR3-Fc (R&D Systems, cat. …) (assay: ELISA).

Q: For B1, which “fold weaker EC50 than other molecules” value is on record?
A: ~3 fold

The binders below were run against T1, Recombinant DR3-Fc (R&D Systems, cat. …) (assay: ELISA (FIG. 4C)).
Experimental: (§1) All ELISA-based measurements were collected in triplicate, and error values report the standard error between measurements. Recombinant DR3-Fc (R&D Systems, cat. #943-D3), dimeric MW˜92 kDa, was non-specifically immobilized onto plates (Nunc maxisorp, cat. #436110) in 100 μL DR3-Fc, diluted to 10 μg/mL onto a 96-well White Maxisorp plate (Nunc, cat #436110) (O/N, 4° C.). Plates were block for 1 hour at room temperature with 250 μl/well of casein buffer and blocking buffer was removed. 50 μL of TL1A variants were diluted in StartingBlock PBS (Thermo Fisher Scientific), at 25 μg/mL, diluting 3× over each well, according to the plate map description for 20160623) per well on a 96-well White Maxisorp plate (Nunc, cat #: 436110) (overnight at 4° C.).
(§2) Plates were washed three times with TBST. 100 μl/well polyclonal rabbit anti-human TL1A-biotin antibody (diluted 1:1000 in Starting Block PBS) was added and plates were incubated for 1 hour at room temperature with shaking at 150 rpm. TL1A-biotin antibody was removed and 100 μl/well streptavidin-HRP conjugate (diluted 1:10,000 in Starting Block PBS) was added to plates. […] 100 μl/well POD Chemiluminescence substrate (Roche, cat #: 11582950001) was added immediately prior to reading plate luminescence using a Molecular Devices M5 plate reader with a delay setting of 100 ms.

Q: Does B2 bind?
A: no binding

Q: Does B3 bind?
A: no binding

What follows are binders tested against T2, DcR3 (assay: ELISA, DcR3).

Q: Which results are given for B4?
A: EC50: 4.6 nM; Rel EC50: 1 ratio (head: nM)

Q: What does the source list for B5?
A: EC50: 10.6 nM; Rel EC50: 2.3 ratio (head: nM)

Q: Which results are given for B6?
A: EC50: 9 nM; Rel EC50: 2 ratio (head: nM)

Q: What does the source list for B7?
A: EC50: 12.6 nM; Rel EC50: 2.7 ratio (head: nM)

Q: Which EC50 does the source give for B8 here?
A: 11.8 nM

Q: What about the “Rel EC50” value of the same binder?
A: 2.6 ratio (head: nM)

Q: How did the EC50 turn out when B9 was run?
A: 24.7 nM

Q: And the “Rel EC50” value?
A: 5.4 ratio (head: nM)

Q: Which results are given for B10?
A: EC50: 32 nM; Rel EC50: 7 ratio (head: nM)

Q: What does the source list for B11?
A: EC50: 6.6 nM; Rel EC50: 1.4 ratio (head: nM)

Q: How did the EC50 turn out when B12 was run?
A: 178 nM

Q: What about the “Rel EC50” value of the same binder?
A: 38.7 ratio (head: nM)

Q: Which results are given for B13?
A: EC50: 16.3 nM; Rel EC50: 3.5 ratio (head: nM)

Q: What does the source list for B14?
A: EC50: 27.2 nM; Rel EC50: 5.9 ratio (head: nM)

Q: Which EC50 does the source give for B15 here?
A: 15.5 nM

Q: And the “Rel EC50” value?
A: 3.4 ratio (head: nM)

Biological target: T2, DcR3
Assay: ELISA, DcR3
Remark: another data set of the same source

Q: For B4, which EC50 is on record?
A: 4.6 nM

Q: What about the “Rel EC50” value of the same binder?
A: 1 ratio

Q: How did the EC50 turn out when B5 was run?
A: 58.5 nM

Q: With B7 as the binder, how does the EC50 read?
A: 69.2 nM

Q: With B9 as the binder, how does the EC50 read?
A: 24.7 nM

Q: With B10 as the binder, how does the EC50 read?
A: 176 nM

Q: For B13, which EC50 is on record?
A: 89.8 nM

Q: For B16, which EC50 is on record?
A: 21.2 nM

Q: With B15 as the binder, how does the EC50 read?
A: 85.5 nM

These binders were tested against T1, Recombinant DR3-Fc (R&D Systems, cat. …) (assay: ELISA, DR3-Fc immobilized).
Experimental: as §1, §2

Q: For B4, which EC50 is on record?
A: 6.8 nM

Q: Which EC50 does the source give for B1 here?
A: 27.3 nM

Biological target: T1, Recombinant DR3-Fc (R&D Systems, cat. …)
Assay: ELISA, DR3-Fc immobilized
Remark: another data set of the same source
How it was run: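 DR3-Fc (10 μg/mL) was coated overnight at 4 °C, blocked with casein, then incubated overnight at 4 °C with TL1A variants from 25 μg/mL in 3-fold dilutions. Bound TL1A was detected with biotinylated rabbit anti-human TL1A and streptavidin-HRP, read by chemiluminescence; triplicates, errors as standard error.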

Q: What does the source list for B4?
A: EC50: 26.2 nM; Rel EC50: 1 ratio (head: nM)

Q: How did the EC50 turn out when B5 was run?
A: 30.2 nM

Q: What about the “Rel EC50” value of the same binder?
A: 1.2 ratio (head: nM)

Q: Which EC50 does the source give for B6 here?
A: 446 nM

Q: And the “Rel EC50” value?
A: 17 ratio (head: nM)

Q: How did the EC50 turn out when B7 was run?
A: 16.6 nM

Q: And the “Rel EC50” value?
A: 0.6 ratio (head: nM)

Q: B8 was tested. Which EC50 did it give?
A: 336 nM

Q: What about the “Rel EC50” value of the same binder?
A: 12.8 ratio (head: nM)

Q: How did the EC50 turn out when B9 was run?
A: 29.5 nM

Q: What about the “Rel EC50” value of the same binder?
A: 1.1 ratio (head: nM)

Q: With B10 as the binder, how does the EC50 read?
A: 17.1 nM

Q: What about the “Rel EC50” value of the same binder?
A: 0.7 ratio (head: nM)

Q: For B11, which EC50 is on record?
A: 300 nM

Q: What about the “Rel EC50” value of the same binder?
A: 11.5 ratio (head: nM)

Q: B12 was tested. Which EC50 did it give?
A: 266 nM

Q: What about the “Rel EC50” value of the same binder?
A: 10.1 ratio (head: nM)

Q: With B13 as the binder, how does the EC50 read?
A: 30 nM

Q: And the “Rel EC50” value?
A: 1.1 ratio (head: nM)

Q: With B16 as the binder, how does the EC50 read?
A: 31.4 nM

Q: What about the “Rel EC50” value of the same binder?
A: 1.2 ratio (head: nM)

Q: How did the EC50 turn out when B14 was run?
A: 144 nM

Q: And the “Rel EC50” value?
A: 5.5 ratio (head: nM)

Q: With B15 as the binder, how does the EC50 read?
A: 17.7 nM

Q: What about the “Rel EC50” value of the same binder?
A: 0.7 ratio (head: nM)

Biological target: T1, Recombinant DR3-Fc (R&D Systems, cat. …)
Assay: ELISA, DR3-Fc immobilized
Remark: another data set of the same source
Experimental: as §1
Plates were washed three times with TBST. 100 μl/well polyclonal rabbit anti-human TL1A-biotin antibody (diluted 1:1000 in Starting Block PBS) was added and plates were incubated for 1 hour at room temperature with shaking at 150 rpm. TL1A-biotin antibody was removed and 100 μl/well streptavidin-HRP conjugate (diluted 1:10,000 in Starting Block PBS) was added to plates. Plates were incubated for 1 hour at room temperature with shaking at 150 rpm. Plates were washed three times with TBST. 100 μl/well POD Chemiluminescence substrate (Roche, cat #: 11582950001) was added immediately prior to reading plate luminescence using a Molecular Devices M5 plate reader with a delay setting of 100 ms.
These combination mutants were tested for binding to DR3 and DcR3 (FIGS. 5E and 5F, respectively).

Q: With B4 as the binder, how does the EC50 read?
A: 26.2 nM

Q: And the “Rel EC50” value?
A: 1 ratio

Q: Which EC50 does the source give for B5 here?
A: 30.2 nM

Q: And the “Rel EC50” value?
A: 1.2 ratio

Q: For B7, which EC50 is on record?
A: 16.6 nM

Q: What about the “Rel EC50” value of the same binder?
A: 0.6 ratio

Q: Which results are given for B9?
A: EC50: 29.4 nM; Rel EC50: 1.1 ratio

Q: Which results are given for B10?
A: EC50: 17.1 nM; Rel EC50: 0.7 ratio

Q: What does the source list for B13?
A: EC50: 30 nM; Rel EC50: 1.1 ratio

Q: With B16 as the binder, how does the EC50 read?
A: 31.4 nM

Q: What about the “Rel EC50” value of the same binder?
A: 1.2 ratio

Q: What does the source list for B15?
A: EC50: 17.7 nM; Rel EC50: 0.7 ratio

These binders were tested against T1, Recombinant DR3-Fc (R&D Systems, cat. …) (assay: ELISA, TL1A construct immobilized, DR3 titrated).

Q: Which EC50 does the source give for B4 here?
A: 2.5 nM
